Results from patent US20240189443A1, “PD-L1 AND TLR7 DOUBLE-TARGETING NANOBODY COUPLING DRUG AND USE THEREOF IN ANTI-TUMOR” (SHANGHAI INSTITUTE OF MATERIA MEDICA, CHINESE ACADEMY OF …, priority 2021, published 2024).
Where “and” joins values, the source holds several entries; their conditions need not be identical. Equal values may be shown once.

Experiments:
[1] = biological target: human PD-L1 (Homo sapiens, UniProt Q9NZQ7); assay: CDR affinity maturation of anti-human PD-L1 nanobodies, affinity compared with original antibody; format: binding; details: relative to original antibody h_Nb1 VHH or h_Nb2 VHH
From the text: Wherein, the original antibody corresponding to the sequence shown in SEQ ID NO.92-106 is h_Nb1 VHH (SEQ ID NO.21); and the original antibody corresponding to the sequence shown in SEQ ID NO.107 -117 is h_Nb2 VHH (SEQ ID NO.25).

[2] = system: induced high-expression PD-L1 CT26 tumor cell; assay: Combined anti-tumor effect of Nb16 and SZU-101, IFN-γ-induced CT26 subcutaneous tumor model; format: in vivo, BALB/c mouse; details: Nb16 10 mg/kg intraperitoneal, SZU-101 3 mg/kg peritumoral
Protocol: The mouse CT26 tumor cells were recovered and passaged, it was ensured that tumor cells at least have been subjected to 3 generations during tumor-bearing, and mouse IFN-γ with a final concentration of 100 ng/mL was used to induce tumor cells for 24 h before tumor-bearing, so that the cell surface thereof highly expresses PD-L1; the induced high-expression PD-L1 CT26 tumor cell was inoculated subcutaneously into a female BALB/c mouse, wherein the inoculation amount was 1×10^6 cells/one; and randomly grouping mice into four groups (9 per group), i.e., a same-type control group (mFc), a nano-antibody Nb16 group (Nb16), a TLR7 agonist SZU-101 group (SZU-101) and a combined treatment group (NB16/SZU-101), wherein the administration amount of the mFc and the Nb16 was 10 mg/kg, and intraperitoneal administration was performed; and the administration amount of the SZU-101 was 3 mg/kg, and the tumor was administered circumferentially. The administration cycle were Nb16 administered on D1, D5, D9, D12, and D14 and SZU-101 administered on D9-D14 (3A). The body weight of the mouse and the tumor major diameter (L) and the short diameter (W) in the administration cycle were observed and recorded until the anatomical endpoint, and the tumor volume V=(L×W×W)/2 was calculated, a tumor growth curve was drawed, and the tumor inhibition rate was calculated; and the experiment was terminated on the fifteenth day. After performing euthanasia, the animal was dissected, and the subcutaneous tumor was taken out.

[3] = biological target: PD-1/PD-L1 (Mus musculus, UniProt Q9EP73); assay: ELISA PD-1/PD-L1 blocking activity assay of nanobody Nb16; format: binding; set-up: A Mouse PD-L1 (ECD)-pFUSE-hIgG1-Fc vector is constructed; made in house; host or cells: HEK293F (PD-L1-Fc)
Protocol: Coating the plate with mPD-L1-Fc fusion protein at 4° C. overnight, then the plate was sealed with BSA at 37° C. for 2 hours, Nb16 nanobodies of different concentrations and 10 μg/mL mouse PD-1-Fc-Biotin fusion protein were added in each hole., After reacting at room temperature for 1 hour, the plate was washed and antibody SA-HRP was added, and the plate reacted at room temperature for 1 hour. After washing, a color developing solution was added, and an absorption value was read at a wavelength of 450 nm.

[4] = system: IFN-γ-induced high-expression PD-L1 CT26; assay: IFN-γ-induced high-expression PD-L1 CT26 subcutaneous tumor-bearing model, conjugate vs combined administration; format: in vivo, BALB/c mouse; details: Day 14, Nb16 or Nb16-SZU-101 10 mg/kg, SZU-101 0.5 mg/kg, intraperitoneal, 4 doses
Protocol: In an IFN-γ-induced high-expression PD-L1 CT26 subcutaneous tumor-bearing BALB/c mouse model, mice were randomly divided into four groups, namely an mFc group, an Nb16 group, an Nb16/SZU-101 combined administration group and an NB16-SZU-101 nanobody conjugate drug group, wherein the administration dosage of the mFc or Nb 16 or Nb16-SZU-101 was 10 mg/kg, the administration mode was intraperitoneal administration, the administration dosage of the SZU-101 was 0.5 mg/kg, and the administration mode was intraperitoneal administration; the drug was administered on Day 2, Day 6, Day 10 and Day 13 for a total of 4 times. Tumor sizes were measured 2-3 times per week, and tumor growth curves were drawn; and anatomical weighing and photographing were performed on mice at Day 14.

Chain of PD-1/PD-L1 (Q9EP73 19-239 limits assumed): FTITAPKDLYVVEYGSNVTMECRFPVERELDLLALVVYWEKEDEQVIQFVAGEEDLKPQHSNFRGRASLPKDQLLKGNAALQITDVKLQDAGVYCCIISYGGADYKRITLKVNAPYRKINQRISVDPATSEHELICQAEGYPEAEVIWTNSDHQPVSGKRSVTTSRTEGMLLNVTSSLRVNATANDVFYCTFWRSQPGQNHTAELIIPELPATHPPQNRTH
Chain of human PD-L1 (Q9NZQ7 19-290): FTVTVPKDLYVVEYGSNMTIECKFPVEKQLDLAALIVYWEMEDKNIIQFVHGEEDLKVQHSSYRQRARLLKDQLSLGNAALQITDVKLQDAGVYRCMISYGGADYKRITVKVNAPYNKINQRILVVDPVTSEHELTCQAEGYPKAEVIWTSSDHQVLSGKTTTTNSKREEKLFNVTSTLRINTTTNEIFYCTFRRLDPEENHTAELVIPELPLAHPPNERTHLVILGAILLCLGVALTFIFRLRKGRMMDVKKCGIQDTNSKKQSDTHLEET

Row | Increased relative affinity [1] | Blocking of PD-1/PD-L1 binding [3] | Molecule | Anti-tumor effect [2] | Tumor inhibitory rate ([2]; day 15) [%] | Endpoint tumor Weight ([2]; individual mice, day 15) | Tumor inhibitory rate [4] [%] | Endpoint tumor Weight ([4]; individual mice)
1 | 8.4837 | – | h_Nb2_G101Y: affinity-matured h_Nb2 VHH, SEQ ID NO: 112 (protein, h_Nb2_G101Y) VHH: DVQLQESGGGLVQPGGSLRLSCAASGFTFGDRWMYWLRQAPGKGLEWVSSINPAGRSTYYADSVKGRFTISRDNAKNTLYLQMNSLKSEDTAVYYCTKDPGYYQKGQGTQVTVSS | – | – | – | – | –
2 | – | effectively blocked | Nb16: anti-PD-L1 nanobody, VHH sequence SEQ ID NO: 1, expressed as Fc fusion (protein, left off: a dimerising Fc or GST) QVQLQESGGGSVQAGGSLRLSCAASGYTDRNYWMGWFRQAPGKEREGVAALYTRTGSTYYADSVKGRFTISHDNAKNTLYLQMNSLKPEDTAVYYCAADSNAYGLAPLHHYWGQGTQVTVSS | significantly inhibit tumor growth | 35 | 0.806 g and 0.505 g and 0.460 g and 0.450 g and 0.250 g and 0.381 g and 0.664 g and 0.361 g and 0.418 g | 30 | 0.263 g and 0.591 g and 0.342 g and 0.334 g and 0.494 g and 0.442 g
